From the RNAGym collection of RNA variant scans (doi:10.7554/elife.80360)

B1: CPEB3 Ribozyme (parent)
chain: GGGGGCCACAGCAGAAGCGUUCACGUCGCGGCCCCUGUCAGAUUCUGGUGAAUCUGCGAAUUCUGCUGU

Variants of: B1
Test: self-cleavage, relative activity (ratio to wild type); higher = more cleavage; co-transcriptional

| Variant | self-cleavage |
| --- | --- |
| G19A G58A | 0.132 |
| G19A G68A | 0.18 |
| G19A G68C | 0.209 |
| G19A U20A | 0.145 |
| G19A U20C | 0.166 |
| G19A U21A | 0.143 |
| G19A U21C | 0.164 |
| G19A U21G | 0.14 |
| G19A U26C | 0.0939 |
| G19A U26G | 0.19 |
| G19A U36C | 0.161 |
| G19A U38G | 0.156 |
| G19A U43A | 0.108 |
| G19A U43C | 0.116 |
| G19A U44C | 0.16 |
| G19A U46A | 0.155 |
| G19A U53C | 0.15 |
| G19A U53G | 0.18 |
| G19A U61G | 0.164 |
| G19A U62C | 0.231 |
| G19A U64A | 0.104 |
| G19A U64G | 0.12 |
| G19A U67A | 0.147 |
| G19A U69C | 0.333 |

| Variant | self-cleavage |
| --- | --- |
| G19A U69G | 0.249 |
| G19C A23G | 0.11 |
| G19C A40C | 0.0886 |
| G19C A42C | 0.153 |
| G19C A42G | 0.11 |
| G19C A42U | 0.173 |
| G19C A51G | 0.182 |
| G19C A51U | 0.157 |
| G19C A59C | 0.0891 |
| G19C A59U | 0.185 |
| G19C A60G | 0.119 |
| G19C A60U | 0.128 |
| G19C C22U | 0.158 |
| G19C C24A | 0.183 |
| G19C C24G | 0.135 |
| G19C C24U | 0.204 |
| G19C C27A | 0.135 |
| G19C C29U | 0.112 |
| G19C C32G | 0.207 |
| G19C C33A | 0.196 |
| G19C C35U | 0.163 |
| G19C C39G | 0.162 |
| G19C C39U | 0.158 |
| G19C C57U | 0.146 |

| Variant | self-cleavage |
| --- | --- |
| G19C C63A | 0.144 |
| G19C C63G | 0.204 |
| G19C C63U | 0.135 |
| G19C G25A | 0.101 |
| G19C G25U | 0.145 |
| G19C G30U | 0.157 |
| G19C G41U | 0.129 |
| G19C G47A | 0.169 |
| G19C G48A | 0.189 |
| G19C G48C | 0.169 |
| G19C G48U | 0.141 |
| G19C G50C | 0.148 |
| G19C G56U | 0.123 |
| G19C G58A | 0.162 |
| G19C U21G | 0.161 |
| G19C U38A | 0.218 |
| G19C U38C | 0.135 |
| G19C U43C | 0.134 |
| G19C U43G | 0.122 |
| G19C U44C | 0.164 |
| G19C U46G | 0.122 |
| G19C U49A | 0.178 |
| G19C U53C | 0.0977 |
| G19C U61A | 0.216 |

| Variant | self-cleavage |
| --- | --- |
| G19C U62A | 0.107 |
| G19C U62C | 0.123 |
| G19C U64A | 0.176 |
| G19C U64G | 0.139 |
| G19C U67C | 0.203 |
| G19C U69A | 0.147 |
| G19U A23G | 0.262 |
| G19U A51C | 0.432 |
| G19U A59C | 0.131 |
| G19U A60C | 0.18 |
| G19U C24A | 0.153 |
| G19U C24U | 0.169 |
| G19U C27U | 0.158 |
| G19U C29U | 0.117 |
| G19U C32U | 0.55 |
| G19U C34A | 0.195 |
| G19U C34G | 0.232 |
| G19U C34U | 0.545 |
| G19U C35A | 0.119 |
| G19U C35U | 0.262 |
| G19U C45A | 0.459 |
| G19U C57A | 0.224 |
| G19U C63G | 0.249 |
| G19U C63U | 0.318 |

| Variant | self-cleavage |
| --- | --- |
| G19U C66U | 0.382 |
| G19U G28C | 0.125 |
| G19U G30C | 0.186 |
| G19U G47A | 0.655 |
| G19U G47C | 0.677 |
| G19U G48A | 0.673 |
| G19U G48C | 0.699 |
| G19U G50U | 0.509 |
| G19U G56U | 0.281 |
| G19U G58C | 0.443 |
| G19U G68A | 0.793 |
| G19U U20G | 0.139 |
| G19U U21A | 0.31 |
| G19U U21G | 0.159 |
| G19U U36A | 0.164 |
| G19U U36C | 0.212 |
| G19U U38C | 0.252 |
| G19U U44C | 0.232 |
| G19U U49A | 0.639 |
| G19U U53A | 0.273 |
| G19U U53C | 0.242 |
| G19U U53G | 0.252 |
| G19U U55A | 0.209 |
| G19U U55G | 0.127 |

| Variant | self-cleavage |
| --- | --- |
| G19U U69G | 0.819 |
| U20A A23G | 0.041 |
| U20A A23U | 0.192 |
| U20A A40C | 0.188 |
| U20A A40U | 0.0825 |
| U20A A42U | 0.133 |
| U20A A59U | 0.106 |
| U20A A60U | 0.117 |
| U20A C24G | 0.0902 |
| U20A C27A | 0.151 |
| U20A C33A | 0.166 |
| U20A C33G | 0.192 |
| U20A C33U | 0.2 |
| U20A C35U | 0.124 |
| U20A C39G | 0.251 |
| U20A C45A | 0.142 |
| U20A C45G | 0.149 |
| U20A C54A | 0.125 |
| U20A C63U | 0.16 |
| U20A G37U | 0.169 |
| U20A G41A | 0.166 |
| U20A G41U | 0.126 |
| U20A G47C | 0.261 |
| U20A G47U | 0.179 |

| Variant | self-cleavage |
| --- | --- |
| U20A G48C | 0.117 |
| U20A G48U | 0.104 |
| U20A G50A | 0.147 |
| U20A G58C | 0.164 |
| U20A G65A | 0.156 |
| U20A U21A | 0.219 |
| U20A U21G | 0.2 |
| U20A U26A | 0.0885 |
| U20A U36A | 0.158 |
| U20A U38A | 0.188 |
| U20A U38C | 0.107 |
| U20A U43A | 0.152 |
| U20A U49C | 0.275 |
| U20A U49G | 0.199 |
| U20A U62C | 0.148 |
| U20A U62G | 0.0797 |
| U20A U67A | 0.12 |
| U20A U69A | 0.181 |
| U20C A23G | 0.238 |
| U20C A40C | 0.215 |
| U20C A40U | 0.227 |
| U20C A42C | 0.199 |
| U20C A42U | 0.271 |
